Patent US20080181903A1, “CONJUGATE OF NATRIURETIC PEPTIDE AND ANTIBODY CONSTANT REGION” (PDL BioPharma, Inc., priority 2006, published 2008)

T1: NPR-A receptor (Homo sapiens, UniProt P16066)
T1 construct: expressed in transfected cells; host or cells: mammalian tissue culture cells (e.g., 3T12 cells)
T1 sequence (P16066 33-1061): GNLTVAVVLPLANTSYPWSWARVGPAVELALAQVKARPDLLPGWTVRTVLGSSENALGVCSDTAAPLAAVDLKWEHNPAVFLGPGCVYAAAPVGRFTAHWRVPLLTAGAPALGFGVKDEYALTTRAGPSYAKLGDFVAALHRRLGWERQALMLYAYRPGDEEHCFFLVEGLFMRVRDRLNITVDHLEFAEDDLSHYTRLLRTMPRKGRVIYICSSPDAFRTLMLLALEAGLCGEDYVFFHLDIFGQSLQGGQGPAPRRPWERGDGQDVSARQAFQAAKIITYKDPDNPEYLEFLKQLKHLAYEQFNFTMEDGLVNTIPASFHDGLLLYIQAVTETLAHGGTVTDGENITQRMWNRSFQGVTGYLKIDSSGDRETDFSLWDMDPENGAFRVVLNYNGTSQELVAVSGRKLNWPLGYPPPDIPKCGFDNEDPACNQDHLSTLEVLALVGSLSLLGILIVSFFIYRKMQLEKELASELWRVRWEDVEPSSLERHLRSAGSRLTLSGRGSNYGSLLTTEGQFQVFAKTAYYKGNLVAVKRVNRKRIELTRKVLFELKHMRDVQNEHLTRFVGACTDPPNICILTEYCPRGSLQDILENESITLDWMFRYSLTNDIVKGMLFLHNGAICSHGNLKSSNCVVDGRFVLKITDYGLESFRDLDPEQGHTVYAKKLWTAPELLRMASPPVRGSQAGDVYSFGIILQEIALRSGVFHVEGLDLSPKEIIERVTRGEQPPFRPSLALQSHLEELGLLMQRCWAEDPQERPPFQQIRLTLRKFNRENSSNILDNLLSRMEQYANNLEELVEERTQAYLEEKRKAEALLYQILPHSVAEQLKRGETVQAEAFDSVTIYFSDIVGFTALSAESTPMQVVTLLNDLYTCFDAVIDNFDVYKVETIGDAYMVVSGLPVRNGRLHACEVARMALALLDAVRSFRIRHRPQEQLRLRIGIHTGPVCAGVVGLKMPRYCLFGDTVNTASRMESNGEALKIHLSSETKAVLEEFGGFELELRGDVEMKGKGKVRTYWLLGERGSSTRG

T2: purified NPR-A-Fc fusion protein (extracellular domain of the receptor NPR-A) (Homo sapiens, UniProt P16066)
T2 construct: Expression construct encoding for the extracellular domain of the receptor NPR-A fused to the DNA encoding for the Fc domain of human immunoglobulin; made in house
T2 sequence (P16066 33-473 limits assumed): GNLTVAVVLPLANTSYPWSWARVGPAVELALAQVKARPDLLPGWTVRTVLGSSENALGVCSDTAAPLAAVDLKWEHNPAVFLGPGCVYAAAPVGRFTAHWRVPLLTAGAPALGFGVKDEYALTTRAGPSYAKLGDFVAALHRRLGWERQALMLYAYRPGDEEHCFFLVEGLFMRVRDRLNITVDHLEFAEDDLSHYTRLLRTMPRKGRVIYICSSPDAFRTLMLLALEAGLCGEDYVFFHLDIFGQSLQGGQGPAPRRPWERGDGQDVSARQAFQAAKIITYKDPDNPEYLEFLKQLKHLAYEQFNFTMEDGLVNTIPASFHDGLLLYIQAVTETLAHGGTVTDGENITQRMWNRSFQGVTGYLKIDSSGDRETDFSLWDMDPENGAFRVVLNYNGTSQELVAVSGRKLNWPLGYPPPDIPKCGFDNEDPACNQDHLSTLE


Key:
[1] = molecular target: NPR-A-Fc receptor fusion protein (human); assay: SPR (BIAcore), NPR-A-Fc captured by anti-human Fc, analyte injected, 1:1 Langmuir fit
[2] = molecular target: NPR-A-Fc receptor fusion protein (human); assay: BIAcore surface plasmon resonance; NPR-A-Fc captured by immobilized goat anti-human Fc gamma antibody, analyte injected; 1:1 Langmuir fit
[3] = molecular target: NPR-A receptor expressed on transfected cells; assay: cell-based or functional assay
[4] = molecular target: NPR-A-Fc receptor fusion protein (human); assay: SPR (BIAcore), NPR-A-Fc captured by anti-human Fc, analyte injected, 1:1 Langmuir fit; experiment with Uro-Fc
[5] = molecular target: NPR-A-Fc receptor fusion protein (human); assay: SPR (BIAcore), NPR-A-Fc captured by anti-human Fc, analyte injected, 1:1 Langmuir fit; experiment with Fc-Uro
NPR-A receptor = molecular target: T1, NPR-A receptor; assay: NPR-A receptor activation, intracellular cGMP in transfected cells; type: cell-based; conditions: cells expressing NPR-A; Fc-Uro vs ularitide (FIG. 3B); read-out: EC50 of cGMP induction
Method: NPR-A receptor activation by test compounds was determined by incubation with mammalian cells transfected with expression vector DNA encoding for the NPR-A receptor and measuring the amount of cGMP generated in these cells.
Mammalian tissue culture cells (e.g., 3T12 cells) transfected with expression vector DNA encoding for the NPR-A were cultured in 96-well microtiter plates for 18-20 hours (˜50,000 cells/well) using standard tissue culture conditions. The tissue culture medium was then changed to serum-free medium, cells were pre-incubated with 1 mM IBMX for 30 minutes and treated with various concentrations of test compounds for 10 minutes. Cells were then lysed with 0.2 ml/well of 0.1 M HCl for 20 min, and lysates centrifuged at 1000×g for 2 min. The cGMP in the supernatants was determined using a commercial kit (Direct cGMP EIA Kit, Assay Designs, Inc., Cat#901-014) according to the manufacturer's instructions.

[6] = molecular target: T2, purified NPR-A-Fc fusion protein (extracellular domain of the receptor NPR-A); assay: BIAcore natriuretic peptide receptor (NPR) binding assay; conditions: Fc-Uro vs ularitide comparison (FIG. 2B), n=6, read-out: Binding affinities (KD) on the NPR-A receptor
Method: Kinetics measurements for analytes resulting in estimates of binding affinity constants (KD) were performed using BIAcore 2000 & 3000 instruments and methods recommended by the manufacturer (BIAcore, Sweden). […] Purified NPR-A-Fc receptor fusion proteins were captured by goat anti-human Fcγ (GAHFc) antibodies (Jackson ImmunoResearch, Cat 109-005-098) immobilized onto the sensorchip surface. The unoccupied GAHFc after the capture was shielded from analytes by the injection of human Fc (huFc, Jackson ImmunoResearch, Cat 009-000-008). Analytes were injected to obtain an association phase followed by injection of HBS-P running buffer (10 mM HEPES, 150 mM sodium chloride, 0.005% P-20 surfactant, pH 7.4) to monitor dissociation for each binding cycle.
The binding kinetics of each analyte-receptor pair was calculated from a global analysis of sensorgram data collected from different analyte concentrations using the BIAevaluate program (BIAcore, Sweden). The affinity (KD) resulting from association (ka) and dissociation (kd) of each analyte against each receptor was obtained by simultaneously fitting the association and dissociation phases of the sensorgram from the analyte concentration series using the same 1:1 Langmuir model from the BIAevaluate software (BIAcore, Sweden).

| Kd [1] [nM] | Kd [2] [nM] | intracellular cGMP levels, EC50 [3] [nM] | Kd [4] [nM] | Kd [5] [nM] | EC50 (NPR-A receptor) [nM] | Kd [6] [nM] | Molecule |
| --- | --- | --- | --- | --- | --- | --- | --- |
| 7000 | 0.007 | 26.3 |  |  |  |  | Uro-Fc(huFcG1(m1)) fusion protein (Fc fusion) |
| 0.35 |  | 86 |  |  |  |  | Fc-Uro(huFcG1(m1)) fusion protein (from UniProt P01857 104-330) (Fc fusion) |
|  | 0.0031 |  | 3100 | 0.0042 |  |  | ularitide (peptide) |
|  |  |  |  |  | 86 | 0.35 ± 0.1 | Fc-Uro(huFcG1(m1)): fusion protein: Fc portion of variant human immunoglobulin heavy constant gamma 1 at amino terminus and human urodilatin at carboxy terminus (protein) DKTHTCPPCPAPEAEGAPSVFLFPPKPKDTLMISRTPEVTCVVVDVSHEDPEVKFNWYVDGVEVHNAKTKPREEQYNSTYRVVSVLTVLHQDWLNGKEYKCKVSNKALPAPIEKTISKAKGQPREPQVYTLPPSRQELTKNQVSLTCLVKGFYPSDIAVEWESNGQPENNYKTTPPVLDSDGSFFLYSKLTVDKSRWQQGNVFSCSVMHEALHNHYTQKSLSLSPGKTAPRSLRRSSCFGGRMDRIGAQSGLGCNSFRY |
